Reference: patent US20050118674A1, “Engineering of Controlled Deamidation Rates in Peptides, Proteins, and Similar Structures” (priority 2003, published 2005)
Where no end group is shown, it is not given here.

Experiment: First-order nonenzymatic deamidation of pentapeptides in Tris buffer
Type: physicochemical
Details: pH 7.4, 37.0° C., 0.15 M Tris HCl; Asn pentapeptides
Outline: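 Pentapeptides containing Asn or Gln in varied flanking sequences incubated at 37° C., pH 7.4, 0.15 M Tris buffer; first-order deamidation rates measured. Some Asn values estimated from remaining data; many Gln values derived from surface fitting rather than measured.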

Substance	First-Order Deamidation Halftimes of GlyXxxAsnYyyGly [days]
GlyLysAsnAspGly (GKNDG; printed: GlyLysAsnAspGly)	34.0
GlyLeuAsnGluGly (GLNEG; printed: GlyLeuAsnGluGly)	56.7
GlyTyrAsnIleGly (GYNIG; printed: GlyTyrAsnIleGly)	306
GlyAmCysAsnValGly (CNVG; not fully specified (N-terminus); printed as GlyAmCysAsnValGly; also: glycinamide shown before Cys, linkage not given here)	215
GlyAspAsnArgGly (GDNRG; printed: GlyAspAsnArgGly)	87.2
GlyGluAsnAlaGly (GENAG; printed: GlyGluAsnAlaGly)	25.8
GlyArgAsnAlaGly (GRNAG; printed: GlyArgAsnAlaGly)	24.4
GlyGlyAsnThrGly (GGNTG; printed: GlyGlyAsnThrGly)	39.8
GlyLysAsnCysGly (GKNCG; printed: GlyLysAsnCysGly)	49.0
GlyPheAsnAspGly (GFNDG; printed: GlyPheAsnAspGly)	27.4
GlyGluAsnSerGly (GENSG; printed: GlyGluAsnSerGly)	16.4
GlyGluAsnGlyGly (GENGG; printed: GlyGluAsnGlyGly)	1.45
GlyLysAsnValGly (GKNVG; printed: GlyLysAsnValGly)	246
GlySerAsnProGly (GSNPG; printed: GlySerAsnProGly)	7060
GlyProAsnHisGly (GPNHG; printed: GlyProAsnHisGly)	12.8
GlySerAsnValGly (GSNVG; printed: GlySerAsnValGly)	233
GlyLysAsnSerGly (GKNSG; printed: GlyLysAsnSerGly)	15.6

Substance	First-Order Deamidation Halftimes of GlyXxxAsnYyyGly [days]
GlyProAsnThrGly (GPNTG; printed: GlyProAsnThrGly)	63.1
GlyHisAsnMetGly (GHNMG; printed: GlyHisAsnMetGly)	63.1
GlyLysAsnIleGly (GKNIG; printed: GlyLysAsnIleGly)	313
GlyArgAsnArgGly (GRNRG; printed: GlyArgAsnArgGly)	67.4
GlyTyrAsnTrpGly (GYNWG; printed: GlyTyrAsnTrpGly)	120
GlyThrAsnAspGly (GTNDG; printed: GlyThrAsnAspGly)	27.9
GlyCysAsnThrGly (GCNTG; printed: GlyCysAsnThrGly)	48.7
GlyLysAsnGlyGly (GKNGG; printed: GlyLysAsnGlyGly)	1.02
GlyGluAsnValGly (GENVG; printed: GlyGluAsnValGly)	268
GlyProAsnGluGly (GPNEG; printed: GlyProAsnGluGly)	92.0
GlyLysAsnMetGly (GKNMG; printed: GlyLysAsnMetGly)	60.9
GlyTrpAsnArgGly (GWNRG; printed: GlyTrpAsnArgGly)	73.9
GlyTyrAsnGluGly (GYNEG; printed: GlyTyrAsnGluGly)	41.0
GlyTrpAsnValGly (GWNVG; printed: GlyTrpAsnValGly)	226
GlyPheAsnProGly (GFNPG; printed: GlyPheAsnProGly)	7990
GlyThrAsnTrpGly (GTNWG; printed: GlyThrAsnTrpGly)	72.5
GlyAlaAsnSerGly (GANSG; printed: GlyAlaAsnSerGly)	14.9

Same assay, conditions: pH 7.4, 37.0 ° C., 0.15 M Tris HCl; Gln pentapeptides; 52 values measured, rest derived from surface fitting

Substance	First-Order Deamidation Halftimes of GlyXxxGlnYyyGly [days]
GlyMetGlnValGly (GMQVG; printed: GlyMetGlnValGly)	5000
GlyHisGlnTyrGly (GHQYG; printed: GlyHisGlnTyrGly)	14000
GlyTyrGlnLysGly (GYQKG; printed: GlyTyrGlnLysGly)	7500
GlyCysGlnLeuGly (GCQLG; printed: GlyCysGlnLeuGly)	4800
GlyMetGlnHisGly (GMQHG; printed: GlyMetGlnHisGly)	4400
GlyGlyGlnCysGly (GGQCG; printed: GlyGlyGlnCysGly)	1900
GlyIleGlnAspGly (GIQDG; printed: GlyIleGlnAspGly)	8100
GlyLeuGlnAspGly (GLQDG; printed: GlyLeuGlnAspGly)	7800
GlyLysGlnCysGly (GKQCG; printed: GlyLysGlnCysGly)	1000
GlyIleGlnLeuGly (GIQLG; printed: GlyIleGlnLeuGly)	6300
GlyValGlnTrpGly (GVQWG; printed: GlyValGlnTrpGly)	12000
GlyCysGlnArgGly (GCQRG; printed: GlyCysGlnArgGly)	5100
GlyLysGlnProGly (GKQPG; printed: GlyLysGlnProGly)	7700
GlyValGlnAlaGly (GVQAG; printed: GlyValGlnAlaGly)	4500
GlyAspGlnValGly (GDQVG; printed: GlyAspGlnValGly)	6600
GlyThrGlnLysGly (GTQKG; printed: GlyThrGlnLysGly)	4800
GlyTrpGlnGluGly (GWQEG; printed: GlyTrpGlnGluGly)	8500
GlyTyrGlnPheGly (GYQFG; printed: GlyTyrGlnPheGly)	8700
GlyMetGlnAspGly (GMQDG; printed: GlyMetGlnAspGly)	6200
GlyTrpGlnTyrGly (GWQYG; printed: GlyTrpGlnTyrGly)	14000
GlyHisGlnPheGly (GHQFG; printed: GlyHisGlnPheGly)	8600
GlyAspGlnAlaGly (GDQAG; printed: GlyAspGlnAlaGly)	7100

Substance	First-Order Deamidation Halftimes of GlyXxxGlnYyyGly [days]
GlyValGlnGluGly (GVQEG; printed: GlyValGlnGluGly)	6500
GlyIleGlnSerGly (GIQSG; printed: GlyIleGlnSerGly)	5800
GlyPheGlnPheGly (GFQFG; printed: GlyPheGlnPheGly)	8200
GlySerGlnLysGly (GSQKG; printed: GlySerGlnLysGly)	6300
GlyProGlnCysGly (GPQCG; printed: GlyProGlnCysGly)	1600
GlyMetGlnLysGly (GMQKG; printed: GlyMetGlnLysGly)	4600
GlyArgGlnMetGly (GRQMG; printed: GlyArgGlnMetGly)	4100
GlyGluGlnMetGly (GEQMG; printed: GlyGluGlnMetGly)	5200
GlyMetGlnIleGly (GMQIG; printed: GlyMetGlnIleGly)	5000
GlyTrpGlnTrpGly (GWQWG; printed: GlyTrpGlnTrpGly)	19000
GlyMetGlnThrGly (GMQTG; printed: GlyMetGlnThrGly)	3800
GlyGlyGlnPheGly (GGQFG; printed: GlyGlyGlnPheGly)	7600
GlyTrpGlnGlyGly (GWQGG; printed: GlyTrpGlnGlyGly)	850
GlySerGlnLeuGly (GSQLG; printed: GlySerGlnLeuGly)	6100
GlyGluGlnLeuGly (GEQLG; printed: GlyGluGlnLeuGly)	4300
GlyCysGlnProGly (GCQPG; printed: GlyCysGlnProGly)	7100
GlyValGlnMetGly (GVQMG; printed: GlyValGlnMetGly)	4200
GlyCysGlnLysGly (GCQKG; printed: GlyCysGlnLysGly)	4400
GlyTrpGlnAlaGly (GWQAG; printed: GlyTrpGlnAlaGly)	7400
GlySerGlnArgGly (GSQRG; printed: GlySerGlnArgGly)	7200
GlySerGlnCysGly (GSQCG; printed: GlySerGlnCysGly)	2100
GlyProGlnArgGly (GPQRG; printed: GlyProGlnArgGly)	6400
